We go through one molecule from article PMC7959245 (The Plant journal : for cell and molecular biology, 2020).

The target in the assay is T1, MBP-COP1 (Arabidopsis thaliana, UniProt P43254 1-675).
T1 sequence (looked up): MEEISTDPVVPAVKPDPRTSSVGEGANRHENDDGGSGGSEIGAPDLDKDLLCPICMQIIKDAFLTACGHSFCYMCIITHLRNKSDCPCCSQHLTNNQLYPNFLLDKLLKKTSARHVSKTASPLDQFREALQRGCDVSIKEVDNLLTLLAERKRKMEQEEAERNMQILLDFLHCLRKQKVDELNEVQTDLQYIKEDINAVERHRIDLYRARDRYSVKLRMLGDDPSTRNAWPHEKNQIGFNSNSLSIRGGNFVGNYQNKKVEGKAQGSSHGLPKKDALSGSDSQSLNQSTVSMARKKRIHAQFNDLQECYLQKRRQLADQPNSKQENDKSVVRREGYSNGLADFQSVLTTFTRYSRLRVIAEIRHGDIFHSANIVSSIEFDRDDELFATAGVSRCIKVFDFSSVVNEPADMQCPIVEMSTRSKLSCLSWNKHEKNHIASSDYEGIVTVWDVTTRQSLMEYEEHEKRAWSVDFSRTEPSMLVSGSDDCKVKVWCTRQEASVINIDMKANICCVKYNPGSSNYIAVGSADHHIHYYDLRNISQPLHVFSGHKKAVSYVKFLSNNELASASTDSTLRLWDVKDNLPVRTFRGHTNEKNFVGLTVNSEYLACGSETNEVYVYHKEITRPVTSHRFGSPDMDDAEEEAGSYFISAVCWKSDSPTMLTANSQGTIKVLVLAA
As to the kind of experiment: pull-down.

B1: GST-HEC2 (natural protein, Arabidopsis thaliana, UniProt Q9SND4 1-231, looked up)
chain: MDNSDILMNMMMQQMEKLPEHFSNSNPNPNPHNIMMLSESNTHPFFFNPTHSHLPFDQTMPHHQPGLNFRYAPSPSSSLPEKRGGCSDNANMAAMREMIFRIAVMQPIHIDPESVKPPKRKNVRISKDPQSVAARHRRERISERIRILQRLVPGGTKMDTASMLDEAIHYVKFLKKQVQSLEEHAVVNGGGMTAVAGGALAGTVGGGYGGKGCGIMRSDHHQMLGNAQILR
Take B1: the binding result is “binds”.
